Source: patent publication US20230416726A1 (University of Washington, published 2023)

Target: T1, programmed cell death ligand 1 (PD-L1) (UniProt Q9NZQ7 19-239, limits assumed, biotinylated in the yeast display assays)
T1 construct: also called PD-Li
Assay: BLI, max binding signal versus PD-L1 concentration

T1 sequence (Q9NZQ7 19-239 limits assumed): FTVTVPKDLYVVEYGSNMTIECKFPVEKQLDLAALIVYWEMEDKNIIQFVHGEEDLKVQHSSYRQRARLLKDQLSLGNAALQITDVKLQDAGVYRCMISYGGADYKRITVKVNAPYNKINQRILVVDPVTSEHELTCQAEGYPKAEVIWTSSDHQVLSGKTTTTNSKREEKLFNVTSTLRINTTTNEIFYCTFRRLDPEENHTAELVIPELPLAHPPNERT

B1: pdl1_inp_1 (purified from E. coli) (designed binder)
chain: DLEEFFEECLKEAEEVRKEVLEGKARIQIKESVRKEDPEGGTYVCGVISLGPKGGKFHVVFHKEDPEGKEETLARFEFKVEGGKVELLELKSKDPELKKLAEKYAEKLLE
notes: Expressed as a monomer; Tested by BLI; not shown: C-terminal SNAC tag and 6xHis tag from the modified pET29b+ vector
Question: Which Kd does the source give for B1 here?
Answer: The Kd was 326 nM.
